Data from patent publication US20250262210A1 (TRUSTEES OF COLUMBIA UNIVERSITY IN THE CITY OF NEW YORK, published 2025).

Columns and labels:
Experiment in all cases: IP/MS, LZTR1 R810W-FLAG, U87
SPG11 = SPG11 (human, UniProt Q96JI7 1-2443, limits assumed)
Procedure, shortened: (§1)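 Read-out: spectral counts from LC-MS/MS (Orbitrap Fusion) after MaxQuant identification. Variable modifications were Met oxidation, protein N-terminal acetylation and N/Q deamidation.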

WDR6 = biological target: T1, WDR6 (human, UniProt Q9NNW5 1-1121)
T1 sequence (looked up): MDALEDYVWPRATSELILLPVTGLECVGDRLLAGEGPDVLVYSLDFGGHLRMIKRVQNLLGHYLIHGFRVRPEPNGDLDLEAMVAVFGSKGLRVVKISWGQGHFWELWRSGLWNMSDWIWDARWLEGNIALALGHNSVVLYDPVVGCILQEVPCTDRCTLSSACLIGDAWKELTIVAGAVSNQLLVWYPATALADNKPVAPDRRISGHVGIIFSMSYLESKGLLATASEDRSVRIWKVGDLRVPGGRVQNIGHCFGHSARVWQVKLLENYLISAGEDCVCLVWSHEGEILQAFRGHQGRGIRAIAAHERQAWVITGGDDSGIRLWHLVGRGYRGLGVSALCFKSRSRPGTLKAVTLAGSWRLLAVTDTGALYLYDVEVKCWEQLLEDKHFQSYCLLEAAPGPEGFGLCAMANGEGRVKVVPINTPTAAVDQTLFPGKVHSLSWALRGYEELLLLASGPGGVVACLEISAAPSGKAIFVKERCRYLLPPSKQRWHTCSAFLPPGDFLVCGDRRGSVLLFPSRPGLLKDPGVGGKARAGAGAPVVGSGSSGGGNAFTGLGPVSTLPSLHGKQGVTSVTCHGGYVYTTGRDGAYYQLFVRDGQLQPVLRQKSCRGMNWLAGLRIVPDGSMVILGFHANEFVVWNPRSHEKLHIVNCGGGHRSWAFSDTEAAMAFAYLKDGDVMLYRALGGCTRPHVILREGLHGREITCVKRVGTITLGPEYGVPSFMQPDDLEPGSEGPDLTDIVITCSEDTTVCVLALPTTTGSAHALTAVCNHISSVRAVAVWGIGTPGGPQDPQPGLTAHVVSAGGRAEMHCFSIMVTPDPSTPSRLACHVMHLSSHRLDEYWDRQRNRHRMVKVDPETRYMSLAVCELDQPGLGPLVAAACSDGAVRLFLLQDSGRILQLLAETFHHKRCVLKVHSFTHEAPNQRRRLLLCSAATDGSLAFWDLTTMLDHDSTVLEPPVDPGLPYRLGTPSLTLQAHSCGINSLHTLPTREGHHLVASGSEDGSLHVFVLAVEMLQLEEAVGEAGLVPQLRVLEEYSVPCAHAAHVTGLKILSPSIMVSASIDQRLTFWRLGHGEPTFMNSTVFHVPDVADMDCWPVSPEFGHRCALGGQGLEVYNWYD
Procedure, shortened: as §1

MTR = MTR (human, UniProt Q99707 1-1265, limits assumed)
Procedure, shortened: as §1

HELZ = HELZ (human, UniProt P42694 1-1942, limits assumed)
Sequence of HELZ (P42694 whole entry): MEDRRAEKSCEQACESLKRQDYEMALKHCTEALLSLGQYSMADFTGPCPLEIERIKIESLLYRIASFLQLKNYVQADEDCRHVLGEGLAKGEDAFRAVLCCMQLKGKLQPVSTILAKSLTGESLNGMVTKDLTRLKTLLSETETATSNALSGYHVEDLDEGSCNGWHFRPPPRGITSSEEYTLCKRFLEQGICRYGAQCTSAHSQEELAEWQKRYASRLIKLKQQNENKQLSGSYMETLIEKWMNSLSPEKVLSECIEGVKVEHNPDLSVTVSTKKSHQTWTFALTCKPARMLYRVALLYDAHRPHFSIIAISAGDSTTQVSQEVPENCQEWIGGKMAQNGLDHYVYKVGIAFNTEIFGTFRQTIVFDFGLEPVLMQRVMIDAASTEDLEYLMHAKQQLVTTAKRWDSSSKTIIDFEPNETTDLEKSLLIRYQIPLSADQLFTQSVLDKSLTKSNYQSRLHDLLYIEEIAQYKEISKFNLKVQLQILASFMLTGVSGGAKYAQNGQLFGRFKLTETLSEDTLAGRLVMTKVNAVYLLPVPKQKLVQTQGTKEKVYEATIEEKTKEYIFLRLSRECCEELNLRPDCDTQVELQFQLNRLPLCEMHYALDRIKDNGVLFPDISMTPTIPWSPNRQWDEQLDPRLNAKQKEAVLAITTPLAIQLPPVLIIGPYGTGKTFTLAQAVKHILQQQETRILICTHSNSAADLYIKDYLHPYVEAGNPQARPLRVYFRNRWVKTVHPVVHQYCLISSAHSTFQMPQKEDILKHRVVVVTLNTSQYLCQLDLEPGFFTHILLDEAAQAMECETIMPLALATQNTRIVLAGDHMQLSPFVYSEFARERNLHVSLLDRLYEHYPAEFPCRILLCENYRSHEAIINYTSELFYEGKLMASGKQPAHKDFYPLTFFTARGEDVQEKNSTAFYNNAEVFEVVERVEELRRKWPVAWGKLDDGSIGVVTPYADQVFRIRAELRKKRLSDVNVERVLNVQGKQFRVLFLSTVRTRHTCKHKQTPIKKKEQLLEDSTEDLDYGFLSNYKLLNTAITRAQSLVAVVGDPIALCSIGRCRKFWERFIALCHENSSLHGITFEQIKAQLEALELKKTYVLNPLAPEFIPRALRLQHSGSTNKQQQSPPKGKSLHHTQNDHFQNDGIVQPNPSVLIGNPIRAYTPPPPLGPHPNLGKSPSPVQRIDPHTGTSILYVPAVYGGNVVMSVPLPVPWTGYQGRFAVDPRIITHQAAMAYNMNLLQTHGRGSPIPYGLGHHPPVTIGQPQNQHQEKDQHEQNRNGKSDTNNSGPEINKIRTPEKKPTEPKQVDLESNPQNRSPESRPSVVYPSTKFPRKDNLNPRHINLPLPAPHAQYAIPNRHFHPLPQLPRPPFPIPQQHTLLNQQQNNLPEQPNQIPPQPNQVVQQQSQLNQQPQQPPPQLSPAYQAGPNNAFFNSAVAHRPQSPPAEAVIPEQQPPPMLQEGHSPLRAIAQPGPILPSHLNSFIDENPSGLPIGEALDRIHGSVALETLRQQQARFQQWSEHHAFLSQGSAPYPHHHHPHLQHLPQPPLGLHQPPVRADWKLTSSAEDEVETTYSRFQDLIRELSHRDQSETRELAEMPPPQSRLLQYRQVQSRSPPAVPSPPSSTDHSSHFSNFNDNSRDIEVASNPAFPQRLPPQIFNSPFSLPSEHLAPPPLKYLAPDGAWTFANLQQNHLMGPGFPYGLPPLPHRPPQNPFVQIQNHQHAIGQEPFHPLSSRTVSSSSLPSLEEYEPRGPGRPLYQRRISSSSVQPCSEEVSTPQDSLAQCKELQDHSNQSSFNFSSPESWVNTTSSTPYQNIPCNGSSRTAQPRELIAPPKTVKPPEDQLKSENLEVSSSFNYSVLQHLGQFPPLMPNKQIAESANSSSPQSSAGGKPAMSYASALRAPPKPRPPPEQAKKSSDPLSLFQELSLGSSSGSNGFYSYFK
Procedure, shortened: as §1

Measured: binding result

Sequence of SPG11 (Q96JI7 whole entry, the tested form may be a part): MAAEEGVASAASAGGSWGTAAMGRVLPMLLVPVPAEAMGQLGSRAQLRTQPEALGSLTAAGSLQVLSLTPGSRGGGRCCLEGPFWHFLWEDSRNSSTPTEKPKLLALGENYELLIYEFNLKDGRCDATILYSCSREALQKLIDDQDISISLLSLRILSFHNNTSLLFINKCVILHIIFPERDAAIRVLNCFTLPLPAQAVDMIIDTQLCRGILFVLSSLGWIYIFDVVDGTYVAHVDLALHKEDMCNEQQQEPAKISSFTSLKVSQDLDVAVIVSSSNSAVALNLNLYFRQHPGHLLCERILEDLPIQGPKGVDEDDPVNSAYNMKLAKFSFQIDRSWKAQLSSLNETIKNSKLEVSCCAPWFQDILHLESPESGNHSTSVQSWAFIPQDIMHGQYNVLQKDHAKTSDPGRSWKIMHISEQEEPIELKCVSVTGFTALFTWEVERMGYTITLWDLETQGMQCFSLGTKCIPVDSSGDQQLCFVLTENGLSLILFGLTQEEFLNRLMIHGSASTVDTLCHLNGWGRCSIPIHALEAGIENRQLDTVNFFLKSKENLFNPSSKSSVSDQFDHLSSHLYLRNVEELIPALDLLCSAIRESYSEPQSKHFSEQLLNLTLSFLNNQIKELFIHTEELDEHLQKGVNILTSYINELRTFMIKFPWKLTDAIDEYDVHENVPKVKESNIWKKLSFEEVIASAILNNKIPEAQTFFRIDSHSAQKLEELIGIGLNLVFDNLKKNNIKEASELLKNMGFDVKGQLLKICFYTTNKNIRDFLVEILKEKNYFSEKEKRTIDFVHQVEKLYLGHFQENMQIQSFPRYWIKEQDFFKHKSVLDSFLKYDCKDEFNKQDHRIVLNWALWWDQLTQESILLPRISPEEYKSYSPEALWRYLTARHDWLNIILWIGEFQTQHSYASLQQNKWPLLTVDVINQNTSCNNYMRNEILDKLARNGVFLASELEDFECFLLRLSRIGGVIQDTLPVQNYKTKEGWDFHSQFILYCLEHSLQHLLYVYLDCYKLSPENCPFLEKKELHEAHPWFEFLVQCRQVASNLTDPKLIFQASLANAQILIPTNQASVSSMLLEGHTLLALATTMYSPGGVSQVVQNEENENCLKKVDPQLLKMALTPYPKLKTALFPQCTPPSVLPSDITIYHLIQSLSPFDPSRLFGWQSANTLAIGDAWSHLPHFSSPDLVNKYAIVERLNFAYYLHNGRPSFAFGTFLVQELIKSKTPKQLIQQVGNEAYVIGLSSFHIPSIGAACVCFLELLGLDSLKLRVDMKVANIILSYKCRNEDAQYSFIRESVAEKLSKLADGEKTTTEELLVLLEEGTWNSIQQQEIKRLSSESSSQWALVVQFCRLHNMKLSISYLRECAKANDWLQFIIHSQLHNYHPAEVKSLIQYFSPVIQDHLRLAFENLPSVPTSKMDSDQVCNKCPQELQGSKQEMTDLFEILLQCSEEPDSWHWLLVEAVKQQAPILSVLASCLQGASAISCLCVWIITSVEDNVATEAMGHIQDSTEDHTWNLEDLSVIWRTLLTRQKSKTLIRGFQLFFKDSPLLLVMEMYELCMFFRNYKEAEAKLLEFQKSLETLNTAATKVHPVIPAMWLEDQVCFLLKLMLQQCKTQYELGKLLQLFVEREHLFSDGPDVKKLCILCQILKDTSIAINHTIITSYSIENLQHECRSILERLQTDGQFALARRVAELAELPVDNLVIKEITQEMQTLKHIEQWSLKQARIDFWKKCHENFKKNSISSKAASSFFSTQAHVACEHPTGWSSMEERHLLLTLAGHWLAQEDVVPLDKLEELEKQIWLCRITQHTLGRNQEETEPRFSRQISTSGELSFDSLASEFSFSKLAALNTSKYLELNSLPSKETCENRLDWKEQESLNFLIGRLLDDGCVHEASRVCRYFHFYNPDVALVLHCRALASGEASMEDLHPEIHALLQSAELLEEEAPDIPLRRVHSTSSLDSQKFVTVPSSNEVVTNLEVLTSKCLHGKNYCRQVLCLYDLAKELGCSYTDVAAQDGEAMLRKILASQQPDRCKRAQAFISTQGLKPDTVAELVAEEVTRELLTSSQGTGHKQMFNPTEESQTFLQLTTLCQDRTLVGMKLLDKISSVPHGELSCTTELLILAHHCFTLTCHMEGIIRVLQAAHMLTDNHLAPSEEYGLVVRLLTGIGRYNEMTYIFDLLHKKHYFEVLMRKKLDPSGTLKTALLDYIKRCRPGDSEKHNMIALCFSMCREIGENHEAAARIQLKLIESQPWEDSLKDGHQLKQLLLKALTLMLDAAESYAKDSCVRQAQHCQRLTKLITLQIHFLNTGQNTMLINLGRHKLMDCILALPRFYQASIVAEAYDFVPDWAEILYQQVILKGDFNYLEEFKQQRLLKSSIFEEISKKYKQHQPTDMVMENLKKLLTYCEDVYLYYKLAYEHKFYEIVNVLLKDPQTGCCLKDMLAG

B1: LZTR1 R810W-FLAG (other, human, UniProt Q8N653 1-840, looked up)
chain: MAGPGSTGGQIGAAALAGGARSKVAPSVDFDHSCSDSVEYLTLNFGPFETVHRWRRLPPCDEFVGARRSKHTVVAYKDAIYVFGGDNGKTMLNDLLRFDVKDCSWCRAFTTGTPPAPRYHHSAVVYGSSMFVFGGYTGDIYSNSNLKNKNDLFEYKFATGQWTEWKIEGRLPVARSAHGATVYSDKLWIFAGYDGNARLNDMWTIGLQDRELTCWEEVAQSGEIPPSCCNFPVAVCRDKMFVFSGQSGAKITNNLFQFEFKDKTWTRIPTEHLLRGSPPPPQRRYGHTMVAFDRHLYVFGGAADNTLPNELHCYDVDFQTWEVVQPSSDSEVGGAEVPERACASEEVPTLTYEERVGFKKSRDVFGLDFGTTSAKQPTQPASELPSGRLFHAAAVISDAMYIFGGTVDNNIRSGEMYRFQFSCYPKCTLHEDYGRLWESRQFCDVEFVLGEKEECVQGHVAIVTARSRWLRRKITQARERLAQKLEQEAAPVPREAPGVAAGGARPPLLHVAIREAEARPFEVLMQFLYTDKIKYPRKGHVEDVLLIMDVYKLALSFQLCRLEQLCRQYIEASVDLQNVLVVCESAARLQLSQLKEHCLNFVVKESHFNQVIMMKEFERLSSPLIVEIVRRKQQPPPRTPLDQPVDIGTSLIQDMKAYLEGAGAEFCDITLLLDGHPRPAHKAILAARSSYFEAMFRSFMPEDGQVNISIGEMVPSRQAFESMLRYIYYGEVNMPPEDSLYLFAAPYYYGFYNNRLQAYCKQNLEMNVTVQNVLQILEAADKTQALDMKRHCLHIIVHQFTKVSKLPTLWSLSQQLLLDIIDSLASHISDKQCAELGADI
notes: Stably expressed in U87 cells by lentivirus; also called LZTR1-FLAG-R810W; LZTR1 RW; not shown: FLAG tag
binds: SPG11 | WDR6 | MTR | HELZ
